Measured values: article PMC10991935

Each sequence was assayed on PsPIWI-RE (Pseudomonas stutzeri DSM 4166) (assay: fluorescence polarization). Conditions: 5' phosphate; FP: 20 mM Tris-HCl pH 7.5, 250 mM NaCl, 5 mM MgCl2, 5 nM oligo, 37 C, 30 min; EMSA: 20 mM Tris-HCl pH 8.0, 150 mM NaCl, 2 mM DTT, 5 mM MgCl2, 1 uM oligo, 1-3 uM.

Point of comparison: “TGAGGTAGTAGGTTGTATAGT [5'P-DNA (5'T) 21-nt guide]”, Kd 24.6 nM. Against it:
- UGAGGUAGUAGGUUGUAUAGU [5'P-RNA (5'U) 21-nt guide] — 2.6-fold higher, 64.4 nM

Same assay, conditions: FP: 20 mM Tris-HCl pH 7.5, 250 mM NaCl, 5 mM MgCl2, 5 nM oligo, 37 C, 30 min; EMSA: 20 mM Tris-HCl pH 8.0, 150 mM NaCl, 2 mM DTT, 5 mM MgCl2, 1 uM oligo, 1-3 uM

Point of comparison: “CGAGGUAGUAGGUUGUAUAGU [5'OH-RNA (5'C) 21-nt guide]”, Kd 152 nM. Against it:
- AGAGGUAGUAGGUUGUAUAGU [5'OH-RNA (5'A) 21-nt guide] — 1.7-fold lower, 88.4 nM
- GGAGGUAGUAGGUUGUAUAGU [5'OH-RNA (5'G) 21-nt guide] — 1.8-fold lower, 86.7 nM
- TGAGGTAGTAGGTTGTATAGT [5'OH-DNA (5'T) 21-nt guide] — 7.7-fold lower, 19.7 nM
- UGAGGUAGUAGGUUGUAUAGU [5'OH-RNA (5'U) 21-nt guide] — 1.8-fold lower, 86.5 nM
